Tests used:
[1] = biological target: T1, human CEACAM6 on Freestyle 293F cells (human, UniProt P40199 35-320); assay: flow cytometry on transfected HEK293F cells
T1 construct: whole, on cells; Gene carries a FLAG-tag at the C-terminal; Transiently expressed; also called CD66c
T1 sequence (looked up): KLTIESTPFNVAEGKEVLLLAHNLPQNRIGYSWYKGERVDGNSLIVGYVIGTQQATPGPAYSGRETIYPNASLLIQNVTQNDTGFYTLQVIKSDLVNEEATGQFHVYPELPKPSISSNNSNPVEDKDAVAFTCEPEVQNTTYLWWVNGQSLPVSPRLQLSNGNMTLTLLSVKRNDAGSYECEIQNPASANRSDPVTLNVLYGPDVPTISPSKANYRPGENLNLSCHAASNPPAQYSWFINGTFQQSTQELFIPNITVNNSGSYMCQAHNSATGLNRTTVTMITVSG
Description: (§1) To determine the cell surface expression levels of CEACAM5 or CEACAM family proteins, the cells were stained with PE-conjugated anti-CEACAM5 IgG1 (Miltenyi Biotec, 130-114-217) or PE-conjugated anti-FLAG mouse antibody (Miltenyi Biotec, 130-101-576). To confirm cell surface binding of selected antibodies, cells were treated with a hIgG1 having the CDRs of Clone #1, a hIgG1 having the CDRs of Clone #2, or the Clone #1 Fab for 1 hour at 4° C. and then stained with Alexa647-conjugated goat anti-human IgG (Invitrogen, A21445) or FITC conjugated-goat anti-human kappa light chain (Invitrogen, A18854) for 0.5 hours at 4° C. For the internalization assays, cells (1×10⁵ cells/well in 96-well plate) were treated with Alexa488-labeled antibodies for durations between 0 and 30 hours. After incubation of antibodies, cells were washed with cold PBS, and then the remained cell surface binding antibodies were analyzed using Alexa488 fluorescence. For CAR expression on anti-CEACAM5 CAR-T cells, CD4⁺ T or CD8⁺ T cells were gated using APC-conjugated anti-human CD4 antibody (ebioscience, 17-0049-42) and eFluor450-conjugated anti-human CD8 antibody (ebioscience, 48-0088-42), and CAR expression was examined using FITC-labeled recombinant Protein L (Acrobiosystems, RPL-PF141).

[2] = biological target: T2, human CEACAM21 on Freestyle 293F cells (human, UniProt Q3KPI0 35-293); assay: flow cytometry on transfected HEK293F cells
T2 construct: whole, on cells; Gene carries a FLAG-tag at the C-terminal; Transiently expressed
T2 sequence (Q3KPI0 35-293): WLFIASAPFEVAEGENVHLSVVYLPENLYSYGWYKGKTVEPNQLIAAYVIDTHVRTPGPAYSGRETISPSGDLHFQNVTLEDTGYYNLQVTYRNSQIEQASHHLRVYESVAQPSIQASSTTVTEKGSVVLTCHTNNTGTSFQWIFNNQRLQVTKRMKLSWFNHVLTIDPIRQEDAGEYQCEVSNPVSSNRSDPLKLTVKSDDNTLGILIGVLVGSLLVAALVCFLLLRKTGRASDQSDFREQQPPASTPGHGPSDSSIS
Description: as §1

[3] = biological target: T3, human CEACAM8 on Freestyle 293F cells (human, UniProt P31997 35-320); assay: flow cytometry on transfected HEK293F cells
T3 construct: whole, on cells; Gene carries a FLAG-tag at the C-terminal; Transiently expressed
T3 sequence (looked up): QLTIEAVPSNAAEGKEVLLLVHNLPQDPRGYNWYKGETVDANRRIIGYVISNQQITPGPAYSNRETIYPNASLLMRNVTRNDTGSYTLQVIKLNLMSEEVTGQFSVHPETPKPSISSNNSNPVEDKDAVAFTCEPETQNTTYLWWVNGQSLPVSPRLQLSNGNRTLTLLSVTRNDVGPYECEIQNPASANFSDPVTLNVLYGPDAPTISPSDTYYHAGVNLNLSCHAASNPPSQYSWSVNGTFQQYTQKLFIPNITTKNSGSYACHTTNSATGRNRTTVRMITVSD
Description: as §1

[4] = biological target: T4, human CEACAM20 on Freestyle 293F cells (human, UniProt Q6UY09 31-596); assay: flow cytometry on transfected HEK293F cells
T4 construct: whole, on cells; Gene carries a FLAG-tag at the C-terminal; Transiently expressed
T4 sequence (Q6UY09 31-596): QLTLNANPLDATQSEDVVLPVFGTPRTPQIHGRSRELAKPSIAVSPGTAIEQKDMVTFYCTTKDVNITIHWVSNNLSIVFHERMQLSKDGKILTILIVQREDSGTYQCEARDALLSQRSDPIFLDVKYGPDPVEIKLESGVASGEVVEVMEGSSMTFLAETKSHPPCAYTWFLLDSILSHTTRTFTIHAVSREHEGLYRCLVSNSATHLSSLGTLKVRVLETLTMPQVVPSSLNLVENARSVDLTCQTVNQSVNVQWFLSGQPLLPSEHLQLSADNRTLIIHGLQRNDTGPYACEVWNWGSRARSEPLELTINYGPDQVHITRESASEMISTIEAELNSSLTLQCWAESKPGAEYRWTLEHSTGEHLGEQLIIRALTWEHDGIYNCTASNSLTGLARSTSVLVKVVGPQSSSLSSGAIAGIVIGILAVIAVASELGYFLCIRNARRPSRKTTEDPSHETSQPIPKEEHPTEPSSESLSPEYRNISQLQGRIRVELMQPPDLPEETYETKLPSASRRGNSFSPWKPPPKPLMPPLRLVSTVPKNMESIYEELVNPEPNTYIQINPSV
Description: as §1

[5] = biological target: T5, human CEACAM18 on Freestyle 293F cells (human, UniProt A8MTB9 31-384); assay: flow cytometry on transfected HEK293F cells
T5 construct: whole, on cells; Gene carries a FLAG-tag at the C-terminal; Transiently expressed
T5 sequence (looked up): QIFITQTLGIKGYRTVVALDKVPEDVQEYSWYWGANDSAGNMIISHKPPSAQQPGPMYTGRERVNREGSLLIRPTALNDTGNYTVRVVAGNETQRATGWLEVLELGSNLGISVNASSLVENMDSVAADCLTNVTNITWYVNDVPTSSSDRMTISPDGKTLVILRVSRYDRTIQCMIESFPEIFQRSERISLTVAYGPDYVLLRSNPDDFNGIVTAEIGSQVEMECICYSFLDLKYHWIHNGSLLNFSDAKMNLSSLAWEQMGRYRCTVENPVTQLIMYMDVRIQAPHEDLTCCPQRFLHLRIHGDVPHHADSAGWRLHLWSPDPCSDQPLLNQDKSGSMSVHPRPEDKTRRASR
Description: as §1

[6] = biological target: T6, human CEACAM1 on Freestyle 293F cells (human, UniProt P13688 35-526); assay: flow cytometry on transfected HEK293F cells
T6 construct: whole, on cells; Gene carries a FLAG-tag at the C-terminal; Transiently expressed
T6 sequence (looked up): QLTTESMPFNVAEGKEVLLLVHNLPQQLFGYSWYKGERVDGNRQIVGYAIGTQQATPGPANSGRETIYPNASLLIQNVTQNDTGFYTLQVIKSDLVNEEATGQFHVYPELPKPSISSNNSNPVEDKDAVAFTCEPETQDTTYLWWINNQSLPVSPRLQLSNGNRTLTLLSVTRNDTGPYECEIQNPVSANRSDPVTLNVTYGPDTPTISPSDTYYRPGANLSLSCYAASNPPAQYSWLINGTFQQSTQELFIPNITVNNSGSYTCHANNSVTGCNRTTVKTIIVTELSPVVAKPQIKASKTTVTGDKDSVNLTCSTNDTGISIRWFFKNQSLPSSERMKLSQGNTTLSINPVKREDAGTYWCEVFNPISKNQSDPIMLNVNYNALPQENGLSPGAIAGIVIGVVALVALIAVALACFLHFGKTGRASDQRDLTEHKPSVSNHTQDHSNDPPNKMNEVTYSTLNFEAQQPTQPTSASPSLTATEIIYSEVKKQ
Description: as §1

[7] = biological target: T7, human CEACAM16 on Freestyle 293F cells (human, UniProt Q2WEN9 21-425); assay: flow cytometry on transfected HEK293F cells
T7 construct: whole, on cells; Gene carries a FLAG-tag at the C-terminal; Transiently expressed
T7 sequence (looked up): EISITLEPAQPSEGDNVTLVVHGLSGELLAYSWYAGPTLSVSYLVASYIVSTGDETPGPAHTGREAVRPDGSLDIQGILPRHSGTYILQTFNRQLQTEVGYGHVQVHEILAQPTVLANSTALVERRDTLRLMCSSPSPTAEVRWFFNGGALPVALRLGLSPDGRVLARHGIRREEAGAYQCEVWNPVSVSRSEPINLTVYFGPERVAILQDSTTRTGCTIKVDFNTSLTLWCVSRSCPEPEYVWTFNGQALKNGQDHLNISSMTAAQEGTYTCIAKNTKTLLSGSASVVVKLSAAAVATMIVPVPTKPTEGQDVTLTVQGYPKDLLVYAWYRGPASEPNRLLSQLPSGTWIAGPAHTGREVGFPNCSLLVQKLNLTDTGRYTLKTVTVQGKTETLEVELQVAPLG
Description: as §1

[8] = biological target: T8, human CEACAM7 on Freestyle 293F cells (human, UniProt Q14002 36-242); assay: flow cytometry on transfected HEK293F cells
T8 construct: whole, on cells; Gene carries a FLAG-tag at the C-terminal; Transiently expressed
T8 sequence (looked up): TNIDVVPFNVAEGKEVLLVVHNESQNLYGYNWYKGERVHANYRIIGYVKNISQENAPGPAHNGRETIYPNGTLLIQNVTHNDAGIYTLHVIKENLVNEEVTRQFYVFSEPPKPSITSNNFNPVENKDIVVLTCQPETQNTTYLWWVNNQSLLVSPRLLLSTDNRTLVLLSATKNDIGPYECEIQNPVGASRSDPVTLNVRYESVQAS
Description: as §1

[9] = biological target: T9, Human IgG1 Fc-fused CEACAM5 A3B3 (residues 501-682) (UniProt P06731 501-682); assay: SPR (Biacore)
T9 chain: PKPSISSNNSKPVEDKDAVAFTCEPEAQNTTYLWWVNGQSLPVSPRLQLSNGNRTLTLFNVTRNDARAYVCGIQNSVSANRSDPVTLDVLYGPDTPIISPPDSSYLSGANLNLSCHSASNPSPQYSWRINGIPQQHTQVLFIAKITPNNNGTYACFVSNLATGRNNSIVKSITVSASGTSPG

[10] = biological target: T10, Human IgG1 Fc-fused CEACAM5 A3B3 (residues 501-682) (human, UniProt P06731 501-682); assay: indirect ELISA, antigen coated on plate
T10 construct: Expressed in Freestyle HEK cells and N-glycosylated; also called CEACAM5 A3B3-Fc; A3B3-Fc; not shown: human immunoglobulin 1 Fc region (hIgG1 Fc)
T10 sequence: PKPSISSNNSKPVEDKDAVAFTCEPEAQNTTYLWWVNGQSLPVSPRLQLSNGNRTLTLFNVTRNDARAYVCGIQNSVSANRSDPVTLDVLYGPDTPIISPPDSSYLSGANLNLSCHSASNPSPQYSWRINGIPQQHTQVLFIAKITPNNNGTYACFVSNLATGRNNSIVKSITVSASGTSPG
Description: (§2) Binding and specificity of scFv, Fab, or IgG to CEACAM related proteins were analyzed through indirect ELISA. Briefly, Fc-fused CEACAM5 polypeptides, CEACAM6 polypeptides, extra-cellular domain of CEACAM5 (R&D systems, 4128-CM), CEACAM6 (R&D systems, 3934-CM), or cynomolgus CEACAM5 (Sino biological, 90891-C08H) was coated on a 96 well plate (Corning, 3690) at 200 ng/well (50 μL volume) in PBS for 2 hours at room temperature. Blocking was carried out with 3% BSA in PBS for overnight at 4° C. Next day, various concentration of scFv, Fab, or IgG was treated to antigen coated plates and incubated for 1 hour at room temperature. After washing three times, anti-FLAG mouse antibody (M2 clone)-HRP conjugated (Sigma, A8592, 1:3000 dilution) or anti-human kappa goat antibody-HRP conjugated (Invitrogen, A18853, 1:3000 dilution) was treated for binding detection. Same volume of TMB (Thermo, PI34028) was added as a substrate, and then enzymatic reaction was stopped by adding of 2N sulfonic acid. The monomeric Fc fused-CD16a (Fc γRIIIa), CD64 (Fc γRIa) and CD32 (Fc γRIIa) were obtained from Prof. Wei Li (University of Pittsburgh, PA) and used for Fc gamma receptor (FcγR) binding test.

[11] = biological target: T10, Human IgG1 Fc-fused CEACAM5 A3B3 …; assay: SPR (BIAcore)
[12] = biological target: T11, Fc-fused CEACAM5 A3B3 domain N580Q mutant (human, UniProt P06731 501-682); assay: indirect ELISA
T11 construct: N-glycosylation site mutant of A3B3-Fc; not shown: human IgG1 Fc carrier and its junction to A3B3
T11 chain: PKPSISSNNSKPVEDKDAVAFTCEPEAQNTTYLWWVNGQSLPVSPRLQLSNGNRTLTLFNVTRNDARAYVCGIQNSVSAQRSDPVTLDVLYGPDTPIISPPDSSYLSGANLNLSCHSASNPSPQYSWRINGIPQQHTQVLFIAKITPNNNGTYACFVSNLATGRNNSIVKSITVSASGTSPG
Description: as §2, with “test. […]” for “test.”

[13] = biological target: T12, Human IgG1 Fc-fused CEACAM5 A1B1 (residues 145-322) (human, UniProt P06731 145-322); assay: indirect ELISA / BIAcore
T12 construct: also called CEACAM5 A1B1-Fc; A1B1 domains of CEACAM5; not shown: human immunoglobulin 1 Fc region (hIgG1 Fc)
T12 sequence: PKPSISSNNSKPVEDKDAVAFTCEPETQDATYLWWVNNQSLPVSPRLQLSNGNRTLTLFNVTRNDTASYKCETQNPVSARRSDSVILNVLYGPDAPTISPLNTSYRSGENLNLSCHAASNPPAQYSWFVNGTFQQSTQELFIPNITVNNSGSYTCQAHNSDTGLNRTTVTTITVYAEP

[14] = biological target: T13, Human IgG1 Fc-fused CEACAM5 A2B2 (residues 323-500) (human, UniProt P06731 323-500); assay: indirect ELISA / BIAcore
T13 construct: also called CEACAM5 A2B2-Fc; A2B2 domains of CEACAM5; not shown: human immunoglobulin 1 Fc region (hIgG1 Fc)
T13 chain: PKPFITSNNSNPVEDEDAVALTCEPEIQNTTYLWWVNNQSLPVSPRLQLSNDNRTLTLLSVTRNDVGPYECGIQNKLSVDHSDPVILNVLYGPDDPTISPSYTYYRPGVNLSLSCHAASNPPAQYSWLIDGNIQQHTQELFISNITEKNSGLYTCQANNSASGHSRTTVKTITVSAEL

B1: Clone #1 Fab (1G9 Fab) (Fab, V domains shown)
VH: QVQLVESGGGLVKPGGSLRLSCAASGFTFSDYYMSWIRQAPGKGLEWVSYISSSGSTIYYADSVKGRFTISRDNAKNSLYLQMNSLRAEDTAVYYCARIGRYSYGLRSYYYYGMDVWGQGTTVTVSS
VL: DIQMTQSPSSLSASVGDRVTITCRASQSISSYLNWYQQKPGKAPKLLIYAASSLQSGVPSRFSGSGSGTDFTLTISSLQPEDFGVYYCMQALQTPVTFGQGTRLEIKR
notes: Human Fab from a phage library (IGHV3-11 / IGKV1-39 frameworks), made in E. coli and purified on Ni-NTA
Q: Does B1 bind [1]?
A: no binding

Q: Does B1 bind [2]?
A: no binding

Q: Does B1 bind [3]?
A: no binding

Q: Does B1 bind [4]?
A: no binding

Q: Does B1 bind [5]?
A: no binding

Q: Does B1 bind [6]?
A: no binding

Q: Does B1 bind [7]?
A: no binding

Q: Does B1 bind [8]?
A: no binding

Q: What about the Kd [9] of the same binder?
A: 1.91 nM

Q: What about the EC50 [10] of the same binder?
A: ~6 nM

Q: What about the Kd [11] of the same binder?
A: 3 nM

Q: Does B1 bind [12]?
A: binds

Q: Does B1 bind [13]?
A: no binding

Q: Does B1 bind [14]?
A: no binding
